Measurements: patent US20240317834A1, “COMPOSITIONS AND METHODS FOR NEUROLOGICAL DISEASES” (CODA BIOTHERAPEUTICS, INC., priority 2020, published 2024)

Key:
[1] = test system: Lenti-X 293T cells; experiment: YFP fluorescence quenching anion reporter plate reader assay of engineered receptors stimulated with acetylcholine or a non-native ligand; type: cell-based
Method in brief: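 Lenti-X 293T cells carrying a YFP anion reporter were transiently transfected with channel DNA and assayed the next day in HEPES-buffered ECS at pH 7.2. Ligand (acetylcholine or non-native ligand) was added in NaI-substituted ECS. Percent quench was the mean of the last 10 s relative to the 15 s pre-addition baseline.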

[2] = test system: rat DRG neurons; experiment: Rheobase shift and evoked action potentials in rat DRG neurons (current clamp); type: cell-based
Experimental: Using whole cell manual patch clamp electrophysiology in HEK293 cells, rat DRG neurons and rat hippocampal neurons, the EC50 of the various engineered receptors disclosed herein to Ach and non-native ligands was measured using the Hill equation with peak current measurements from escalating doses of ligand. The rheobase shift was also measured in rat DRG neurons, which reflects the efficacy of the receptors. To calculate the rheobase, first, the amount of current that can produce an action potential was determined. Then the ligand was added, followed by a step wise increase in the current injected up to 700 pA.
For manual patch clamp experiments, Cells plated on coverslips were visualized at 10× and 40× on an inverted fluorescence microscope (Olympus). Recordings were made with an Axopatch 200B amplifier and Digidata 1550B (Molecular Devices) at RT using 3-6 MOhm glass patch electrodes (Sutter, BF150-86-10). Unless otherwise stated, recordings were made in extracellular solution (ECS) containing: 140 mM sodium chloride, 4 mM potassium chloride, 1 mM magnesium chloride, 2 mM calcium chloride, 10 mM HEPES, and 10 mM D-(+)-glucose (pH=7.3 with sodium hydroxide, osmolarity=305−315 mOsm). An 8-line reservoir (AutoMate Scientific) in combination with an 8-channel zero-dead-volume perfusion pencil (AutoMate Scientific) was used for perfusion. Data was acquired using pClamp software (Molecular Devices). Traces were either analyzed in Clampfit (Molecular Devices) or using custom Python code. Plotting and statistics were performed in GraphPad Prism.
DRG rheobase experiments were performed in current clamp mode using a potassium-based internal solution containing: 100 mM potassium D-gluconate, 28 mM potassium chloride, 1 mM magnesium chloride hexahydrate, 5 mM magnesium ATP, 10 mM HEPES, and 0.5 mM EGTA (pH=7.2 with potassium hydroxide, osmolarity=290-295 mOsm, calculated liquid junction potential=−13.5 mV). To measure DRG input resistance and rheobase, 500 ms current steps (−200 pA to 700 pA) were applied the membrane in the presence and absence of a compound. No holding current was applied to the membrane for cells included in the final datasets. Data were acquired at 10 kHz, with Bessel filter at 2 kHz and series resistance compensation at 100%. Rheobase was defined as the smallest depolarizing current injection required to cause an action potential to fire in the cell. In a subset of cells, the rheobase was ambiguous, since the action potential appeared to be graded in amplitude. In these cases, a […] of the trace clarified the rheobase. Input resistance was measured from the negative current injections, calculated as the difference in membrane potential at steady state divided by the current injection amplitude and then averaged across the four negative current steps for each recording. Resting membrane potential was measured from the first 100 ms of each sweep, averaged for each recording, and corrected for liquid junction potential. One-way ANOVA with multiple comparisons was used to test for significance of difference in rheobase and input resistance between baseline, drug, and wash conditions.

B1: CODA1027: engineered chimeric LGIC receptor, R101F, L131D in SEQ ID NO: 33 (protein)
chain: MRCSPGGVWLALAASLLHVSLQGEFQRKLYKELVKNYNPLERPVANDSQPLTVYFSLSLLQIMDVDEKNQVLTTNIWLQMSWTDHYLQWNVSEYPGVKTVFFPDGQIWKPDILLYNSADERFDATFHTNVDVNSSGHCQYLPPGIFKSSCPMDLKNFPMDVQTCKLKFGSWSYGGWSLDLQMQEADISGYIPNGEWDLVGIPGKRSERFYECCKEPYPDVTFTVTMRRRMGYYLIQMYIPSLLIVILSWISFWINMDAAPARVGLGITTVLTMTTQSSGSRASLPKVSYVKAIDIWMAVCLLFVFSALLEYAAVNFVSRQHKELLRFRRKRRHHKSPMLNLFQEDEAGEGRFNFSAYGMGPACLQAKDGISVKGANNSNTTNPPPAPSKSPEEMRKLFIQRAKKIDKISRIGFPMAFLIFNMFYWIIYKIVRREDVHNQ
modifications: synthetic sequence of chimeric LGIC
- YFP fluorescence quenching using CNL001 ([1]; 1 nM CNL001, first column): 24.049%
- YFP fluorescence quenching using CNL001 ([1]; 1 nM CNL001, second column): 36.755%
- YFP fluorescence quenching using TC-5619/Bradanicline ([1]; 1 nM brd): −10.07%
- YFP fluorescence quenching using TC-5619/Bradanicline ([1]; 3 nM brd): −0.8%
- YFP fluorescence quenching using Varenicline ([1]; 3 nM var, first column): −3.367
- YFP fluorescence quenching using Varenicline ([1]; 3 nM var, second column): −0.431
- YFP fluorescence quenching using CNL001 ([1]; 10 nM CNL001, first column): 52.927%
- YFP fluorescence quenching using CNL001 ([1]; 10 nM CNL001, second column): 61.449%
- YFP fluorescence quenching using TC-5619/Bradanicline ([1]; 10 nM brd): 1.74%
- YFP fluorescence quenching using TC-5619/Bradanicline ([1]; 30 nM brd): 53.95%
- YFP fluorescence quenching using Facinicline ([1]; 30 nM fac): −10.05
- YFP fluorescence quenching using Varenicline ([1]; 30 nM var, first column): −0.761
- YFP fluorescence quenching using Varenicline ([1]; 30 nM var, second column): 2.989
- YFP fluorescence quenching using CNL001 ([1]; 50 nM CNL001, first column): 67.308%
- YFP fluorescence quenching using CNL001 ([1]; 50 nM CNL001, second column): 68.77%
- YFP fluorescence quenching using ABT-126 ([1]; 50 nM abt): −11.89%
- YFP fluorescence quenching using CNL001 ([1]; 100 nM CNL001, first column): 69.049%
- YFP fluorescence quenching using CNL001 ([1]; 100 nM CNL001, second column): 71.613%
- YFP fluorescence quenching using CNL002 ([1]; 100 nM CNL002): 7.75%
- YFP fluorescence quenching using ABT-126 ([1]; 100 nM abt): −16.07%
- YFP fluorescence quenching using AZD-0328 ([1]; 100 nM azd0328): −4.76%
- YFP fluorescence quenching using ABT-126 ([1]; 300 nM abt): −11.21%
- YFP fluorescence quenching using AZD-0328 ([1]; 300 nM azd0328): −7.52%
- YFP fluorescence quenching using TC-5619/Bradanicline ([1]; 300 nM brd): 76.74%
- YFP fluorescence quenching using Facinicline ([1]; 300 nM fac): −12.54
- YFP fluorescence quenching using Varenicline ([1]; 300 nM var, first column): 2.966
- YFP fluorescence quenching using Varenicline ([1]; 300 nM var, second column): 10.211
- YFP fluorescence quenching using Varenicline ([1]; 500 nM var, first column): 15.278
- YFP fluorescence quenching using Varenicline ([1]; 500 nM var, second column): 20.84
- YFP fluorescence quenching using CNL001 ([1]; 1 uM CNL001, first column): 71.811%
- YFP fluorescence quenching using CNL001 ([1]; 1 uM CNL001, second column): 69.907%
- YFP fluorescence quenching using CNL002 ([1]; 1 uM CNL002): 61.97%
- YFP fluorescence quenching using ABT-126 ([1]; 1 uM abt): −9.38%
- YFP fluorescence quenching using TC-6987 ([1]; 1 uM tc6987): 0.88
- YFP fluorescence quenching using Varenicline ([1]; 1 uM var, first column): 37.104
- YFP fluorescence quenching using Varenicline ([1]; 1 uM var, second column): 42.439
- YFP fluorescence quenching using TC-6987 ([1]; 10 uM tc6987): 56.27
- YFP fluorescence quenching using CNL002 ([1]; 30 uM CNL002): 65.77%
- YFP fluorescence quenching using AZD-0328 ([1]; 30 uM azd0328): 74.9%
- YFP fluorescence quenching using Facinicline ([1]; 30 uM fac): 70.96
- YFP fluorescence quenching using TC-6987 ([1]; 500 uM tc6987): 71.3
- percent quench of YFP fluorescence, 30 nM TC-6683 ([1]; TC-6683 30 nM): 1.189%
- percent quench of YFP fluorescence, 300 nM TC-6683 ([1]; TC-6683 300 nM): 0.939%
- percent quench of YFP fluorescence, 3 uM TC-6683 ([1]; TC-6683 3 uM): 1.327%
- percent quench of YFP fluorescence, 30 uM TC-6683 ([1]; TC-6683 30 uM): −0.845%
- percent quench of YFP fluorescence, 100 uM TC-6683 ([1]; TC-6683 100 uM): −3.136%
- percent quench of YFP fluorescence, 10 uM ach ([1]; acetylcholine 10 uM): −1.62%
- percent quench of YFP fluorescence, 50 uM ach ([1]; acetylcholine 50 uM): −1.6%
- percent quench of YFP fluorescence, 100 uM ach ([1]; acetylcholine 100 uM): −2.62%
- percent quench of YFP fluorescence, 300 uM ach ([1]; acetylcholine 300 uM): −6.12%
- percent quench of YFP fluorescence, 500 uM ach ([1]; acetylcholine 500 uM): −7.71%
- percent quench of YFP fluorescence, 1 mM ach ([1]; acetylcholine 1 mM): −5.73%
- percent quench of YFP fluorescence, 3 mM ach ([1]; acetylcholine 3 mM): 33.69%
- Rheobase Shift; Rat DRG Neurons, +TC-5619 @ EC90 ([2]; +TC-5619 @ EC90): 638 ± 63 pA
- Rheobase Shift; Rat DRG Neurons, Baseline ([2]; Baseline, no ligand): 100 ± 23 pA
